The chains are these.
B1: CsUGT75B2: UDP-glycosyl transferase from Cannabis sativa, amino acid sequence SEQ ID NO: 32 (protein, listed as Cannabis sativa)
chain: MVQPRFLILAFPLQGTINPCLNLANQLIRVANAQVTFVTSVNAHRLIMTTHTVATTSNNLLSFSPFFDGYDEGVTDGKGFHDHFVEFKRRGWQAVGDILELGFKEGRPYTCLVYSILLTWAADVAATHNVPASMFWMQPATVFDVYYYYFHGHKEIICANTKNHSFSLSFPRIPLTMNLKDLPSLMVDSNYSYILTMLHEMYKDFEKESNNTKIILVNTFDELEPDALRAINKFNLIGIGPLITSKTSFSFRNYIEWLNTKPKKTVVYVSFGSILILKKQQMDEIAKGLLEFGHPFLWVIKEKNSSSKEGVHEDNIKNELSYKEELEKLGMIVPWCSQMEVLRNESLGCFVTHCGWNSTLESIVSGVPVVAFPQWTDQQTNAKLIEEMWKIGVRVKPDEDGIVKSEEIKRCLELVMSKNENRTEIVKNVKKWQNLTKEAMREGGSSEKNLITFVKSIHQ
B2: CsUGT73B4: UDP-glycosyl transferase from Cannabis sativa, amino acid sequence SEQ ID NO: 34 (protein, listed as Cannabis sativa)
chain: MSKGHTIPLLHLARVLLNRHVTVTIFTTPANRSFITKFLPATSAAIVELPFPKNIPGVPNGVENTEDFPTMSMSMFYSLVLGTQNMKPDLDRALENIQTPVSFMVSDGFLWWTLDSASKLGFPRLVFYGMSHYAMAVYHSLFNSKKPKQTETETVVSDFPWIKLTRSEYDPSAQNGEDQSLAHEFMSKATEATNNSFGMIYNSFYELEPMFTDYWNQKVGPKSWPLGPLCLHDMKIESRGLVVHPWLDEKESSSVLYVAFGSQATVSSEQVREIAKGLEYSNVNFFWVLRKLEPEENKFLEEFEKRVKNRGIVVRDWVNQMEILKHKSVKGFFSHCGWNSVMESLSAGLPILGFPMMAEQHINAKMVVEEIKIGLRVKSYDGSLNGIVKSEEVSKMVKELMEGEVGKEMRKKVEEFAVMAHKAVQKGGSSWETLDLLLSSTKQRIHHY
B3: CsUGT73B1: UDP-glycosyl transferase from Cannabis sativa, amino acid sequence SEQ ID NO: 36 (protein, listed as Cannabis sativa)
chain: MSKEIWVVPFFGQGHLFPSMELCKQIASRNINTLLVIPSNLSFSIPSSLRQYPLLQIVEIQPTSAPSAQPGPDPIDQPPHGNPDQFEMGLENLLQAQVTGPDSVRPICAILDVMMDWTTEVFNKFDIPTIGFFTSGACSAAMEYGLWKAQPIDLKPGEVRLLPGLPEEMAVTYLDTNQRPHQPPGPPLHLFGVGHQGPFVDGAHRPPGPPPPPYLGRAGPRQRGPPKHGSQPPWVDGLKGSIALMINTCDYLERPFIEYLTKQIGKPVWGVGPLLPEQFWNSVSSNSILHDHEIRTNRQSNVSEDDVIQWLDSKPRGSVLYVCFGTEVSPSMEEYSELADALEASTQPFIWVVHSGTGRSGPPPSRGPTQEDYFPHGLASQVGPKGLIINGWAPQLLILSHSSIGGFLTHCGWNSTVEAIGLGVPLLAWPIRGDQNYNAKLVVAHLKLGFMISDNLSEKIKKHEIVKGIKTLMGDDDIKSRARNLAAIFQKGFPISSTTNLDVFRDMINNFT
B4: AtUGT76B1: UDP-glycosyl transferase from Arabidopsis thaliana, amino acid sequence SEQ ID NO: 28 (protein, listed as Arabidopsis thaliana)
chain: METRETKPVIFLFPFPLQGHLNPMFQLANIFFNRGFSITVIHTEFNSPNSSNFPHFTFVSIPDSLSEPESYPDVIEILHDLNSKCVAPFGDCLKKLISEEPTAACVIVDALWYFTHDLTEKFNFPRIVLRTVNLSAFVAFSKFHVLREKGYLSLQETKADSPVPELPYLRMKDLPWFQTEDPRSGDKLQIGVMKSLKSSSGIIFNAIEDLETDQLDEARIEFPVPLFCIGPFHRYVSASSSSLLAHDMTCLSWLDKQATNSVIYASLGSIASIDESEFLEIAWGLRNSNQPFLWVVRPGLIHGKEWIEILPKGFIENLEGRGKIVKWAPQPEVLAHRATGGFLTHCGWNSTLEGICEAIPMICRPSFGDQRVNARYINDVWKIGLHLENKVERLVIENAVRTLMTSSEGEEIRKRIMPMKETVEQCLKLGGSSFRNLENLIAYILSF
B5: AtUGT76D1: UDP-glycosyl transferase from Arabidopsis thaliana, amino acid sequence SEQ ID NO: 30 (protein, listed as Arabidopsis thaliana)
chain: MAEIRQRRVLMVPAPFQGHLPSMMNLASYLSSQGFSITIVRNEFNFKDISHNFPGIKFFTIKDGLSESDVKSLGLLEFVLELNSVCEPLLKEFLTNHDDVVDFIIYDEFVYFPRRVAEDMNLPKMVFSPSSAATSISRCVLMENQSNGLLPPQDARSQLEETVPEFHPFRFKDLPFTAYGSMERLMILYENVSNRASSSGIIHNSSDCLENSFITTAQEKWGVPVYPVGPLHMTNSAMSCPSLFEEERNCLEWLEKQETSSVIYISMGSLAMTQDIEAVEMAMGFVQSNQPFLWVIRPGSINGQESLDFLPEQFNQTVTDGRGFVVKWAPQKEVLRHRAVGGFWNHGGWNSCLESISSGVPMICRPYSGDQRVNTRLMSHVWQTAYEIEGELERGAVEMAVRRLIVDQEGQEMRMRATILKEEVEASVTTEGSSHNSLNNLVHAIMMQIDEQ

The test system of this experiment is CN3 yeast strain host cells. Put plainly: Detection of glycosylated cannabinoids and cannabinoid precursors in yeast cells expressing UDP-glycosyl transferase (HPLC-MS). Conditions: pellet or supernatant of recombinant yeast host cells transformed with the UGT. In kind it is cell-based. The source says: CN3 yeast strain host cells were transformed as described in Example 1 with one of the following heterologous UGT genes: (1) AtUGT73C6, (2) AtUGT73B4, (3) AtUGT71 D1, (4) AtUGT76E12, (5) AtUGT88A1, (6) HaUGT76G1-L, (7) At5g49690, (8) AtUGT76C4, (9) CsUGT73C6, (10) SrUGT76C1, (11) AtUGT85A3, (12) AtUGT73B1, (13) Atg65550, (14) AtUGT76B1, (15) ATUGT76B1, (16) CsUGT75B2, (17) CsUGT73B4, (18) CsUGT73B1, (19) CsUGT75D1-DN11028, and (20) CsUGT71D1-DN48028. The transformed host cells were pre-grown overnight in yeast extract peptone dextrose (YPD) growth medium and then back diluted into yeast extract peptone galactose (YPG) to OD600 = 0.2. […] Strains were incubated for 20 h at 28° C. rotating at 600 RPM in an EPOCH|2 microplate reader (BioTek). Subsequently, samples were treated with an extraction solvent (80 % Acetonitrile, 20 % Methanol) for 1 hour rotating at 100 RPM. After 20 minutes centrifugation at 12,000 RPM, the supernatant was filtered with a basix 13 mm syringe filter (0.22 µm pore size, Nylon membrane) and transferred to a new tube for further analysis.
Glycosylated cannabinoid compounds and glycosylated cannabinoid precursor compounds were assayed in the supernatant and the cellular pellet employing HPLC and HPLC-MS analysis. HPLC and HPLC-MS analysis was carried out as described below to detect the following glycosylated cannabinoid and cannabinoid precursor compounds: CBGA monoglucoside, CBGA diglucoside, CBDA monoglucoside, CBDA diglucoside, CBGA glucuronic acid, CBD monoglucoside, CBD diglucoside, olivetolic acid monoglucoside (“OliAcid monoglucoside”), olivetolic acid diglucoside (“OliAcid diglucoside”).
HPLC analysis was carried out on an Agilent Technologies 1290 Infinity system, consisting of a vacuum degasser, a binary pump, a thermostated autosampler, a thermostated column compartment and a diode array detector (DAD). A Zorbax Eclipse Plus EC-18 column (2.1 × 50 mm, 1.8 µm, Agilent, USA) was used with a mobile phase composed of 0.1% formic acid in both (A) water with 0.2 % Formic Acid and (B) Acetonitrile with 0.2 % Formic Acid. The chromatographic conditions were set as follows: 0.0-8.0 min linear gradient from 5 to 95% B; 8.1-9.09 min […], 9.10-11.0 min 5 to 95% A for equilibration of the column with the initial conditions. The flow rate was set at 0.4 ml/min. The column temperature was set at 40° C. The sample injection volume was 5 µL. The UV/DAD acquisitions were carried out in the range 190-400 nm and chromatograms were acquired at 265 and 350 nm.
HPLC-MS analysis was carried out to confirm the identity of the HPLC peaks using an Agilent Technologies 6530 Accurate-Mass quadrupole time of flight (QToF) mass spectrometer operating in negative ionization (ESI -) mode. The mass spectrometer experimental parameters were set as follows: the capillary voltage was 3.5 kV, the nebulizer (N2) pressure was 35 psi, the drying gas temperature was 350° C., the drying gas flow was 11 L/min and the skimmer voltage was 65 V. Data were acquired by Agilent Mass Hunter software. The mass spectrometer was operated in full-scan mode in the m/z range 50-1100. Extracted ion chromatograms (EICs) were obtained with an accuracy of 10 ppm m/z from total ion chromatogram (TIC) employing the m/z corresponding to the molecular ions [M-H]^- 385.1504 for Olivetolic Acid Mono-Glucoside, 547.2032 for Olivetolic Acid di-Glucoside, 521.2756 for CBGA Mono-Glucoside, 683.3284 for CBGA Di-Glucoside, 535.2549 for CBGA Glucuronic Acid, 519.2600 for CBDA Mono-Glucoside, 475.2701 for CBD Mono-Glucoside, 637.3302 for CBD Di-Glucoside.
The glycosylated cannabinoid compounds and glycosylated cannabinoid precursor compounds were detected in a relative and semi-quantitative fashion. […]
As to B1, the “production of glycosylated cannabinoids or cannabinoid precursor compounds” value (from here on “production”) is on record as “No production”.
Regarding B2, the “production” value is reported as “No production”.
Regarding B3, the “production” value was “No production”.
Regarding B4, the “production” value is on record as “No production”.
Consider B5, for which the “production” value is “No production”.

(Values after patent US20230340555A1, “PRODUCTION OF GLYCOSYLATED CANNABINOIDS” (WILLOW BIOSCIENCES, INC., priority 2020, published 2023).)
